Experimental data: patent US5851528

How the values were obtained:
C3/C5 convertases [1] = target: C3/C5 convertases
[2] = target: C5 convertase (formed in human serum) (human)
C3/C5 convertases [3] = target: C3/C5 convertases; remark: listed apart in the source

Substance	IC50, inhibition of alternative pathway complement-mediated lysis of unsensitized guinea pig RBC by human serum (C3/C5 convertases [1]) [nM]	IC50, inhibition of C5a production in human serum (competition radioimmunoassay for C5a desArg) [2] [nM]	IC50, inhibition of classical pathway complement-mediated lysis of IgM-sensitized sheep RBC by human serum (C3/C5 convertases [3]) [nM]
CAB-2 (complement activation blocker-2), recombinant chimeric protein encoded by the MCP-DAF expression vector	100	300	30
mixture of sMCP + sDAF added together on an equal molar basis (pool or library)	–	–	200
soluble DAF (sDAF), soluble decay accelerating factor (from UniProt P08174)	–	–	100
soluble MCP (sMCP), soluble membrane cofactor protein recombinant protein (from UniProt P15529-3)	350	5000	7000
